Key:
[1] = molecular target: T1, Recombinant GPVI-Fc (extracellular domain of human GPVI fused to human IgG1 Fc domain) (Homo sapiens, UniProt Q9HCN6); experiment: SPR
[2] = molecular target: T1, Recombinant GPVI-Fc (extracellular …); experiment: ELISA

T1 sequence (Q9HCN6 21-267): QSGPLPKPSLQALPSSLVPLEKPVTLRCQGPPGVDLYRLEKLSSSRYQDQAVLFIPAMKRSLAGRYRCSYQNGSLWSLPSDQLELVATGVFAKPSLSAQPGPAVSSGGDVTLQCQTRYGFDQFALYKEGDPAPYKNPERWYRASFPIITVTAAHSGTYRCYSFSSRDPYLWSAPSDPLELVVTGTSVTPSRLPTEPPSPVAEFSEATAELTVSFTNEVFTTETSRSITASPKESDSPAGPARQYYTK

Binder | Kd [1] | binding result [2]
ACT005, humanized anti-GPVI Fab (VL2b + VH2) (Fab, V domains shown) VH: EVQLVESGGGLVQPGGSLRLSCAASGYTFTSYNMHWVRQAPGKGLEWVGGIYPGNGDTSYNADFKRRFTFSLDTSKSTAYLQMNSLRAEDTAVYYCARGTVVGDWYFDVWGQGTLVTVSS VL: DIQMTQSPSSLSASVGDRVTITCSASQSLENSNGNTYLNWYQQKPGKAPKLLIYRVSNRFSGVPSRFSGSGSGTDFTLTISSLQPEDFATYYCLQLTHVPWTFGQGTKVEIK | < 25 nM | –
ACT016, humanized anti-GPVI Fab (VL8b + VH2) (Fab, V domains shown) VH: EVQLVESGGGLVQPGGSLRLSCAASGYTFTSYNMHWVRQAPGKGLEWVGGIYPGNGDTSYNADFKRRFTFSLDTSKSTAYLQMNSLRAEDTAVYYCARGTVVGDWYFDVWGQGTLVTVSS VL: DIQMTQSPSSLSASVGDRVTITCRSSQSLENSNGNTYLNWYQQKPGKAPKLLIYRVSNRFSGVPSRFSGSGSGTDFTFTISSLQPEDIATYYCLQLTHVPWTFGQGTKVEIT | < 25 nM | –
ACT006, humanized anti-GPVI Fab (VL2b + VH3) (Fab, V domains shown) VH: QVQLVQSGAEVKKPGASVKVSCKASGYTFTSYNMHWVRQAPGQGLEWMGGIYPGNGDTSYNQKFQGRVTMTRDTSTSTVYMELSSLRSEDTAVYYCARGTVVGDWYFDVWGQGTLVTVSS VL: DIQMTQSPSSLSASVGDRVTITCSASQSLENSNGNTYLNWYQQKPGKAPKLLIYRVSNRFSGVPSRFSGSGSGTDFTLTISSLQPEDFATYYCLQLTHVPWTFGQGTKVEIK | < 8 nM | –
ACT017, humanized anti-GPVI Fab (VL8b + VH3) (Fab, V domains shown) VH: QVQLVQSGAEVKKPGASVKVSCKASGYTFTSYNMHWVRQAPGQGLEWMGGIYPGNGDTSYNQKFQGRVTMTRDTSTSTVYMELSSLRSEDTAVYYCARGTVVGDWYFDVWGQGTLVTVSS VL: DIQMTQSPSSLSASVGDRVTITCRSSQSLENSNGNTYLNWYQQKPGKAPKLLIYRVSNRFSGVPSRFSGSGSGTDFTFTISSLQPEDIATYYCLQLTHVPWTFGQGTKVEIT | 4.1 nM | –
Fab 9O12, Fab fragment of the mouse monoclonal IgG1,k 9O12 (Fab, V domains shown) VH: QVQLQESGAELVKPGASVKMSCKASGYTFTSYNMHWVKQTPGQGLEWIGGIYPGNGDTSFNQKFKGKATLTADKSSRTAYMQLSSLTSEDSAVYYCARGTVVGDWYFDVWGAGTTLTVSS VL: DVLMTQTPLSLPVSLGDQASISCRSSQSLENSNGNTYLNWYLQKPGQSPQLLIYRVSNRFSGVLDRFSGSGSGTDFTLKISRVEAEDLGVYFCLQLTHVPWTFGGGTKLEIK | 17 nM | –
ACT010, humanized anti-GPVI Fab (VL3b + VH3) (Fab, V domains shown) VH: QVQLVQSGAEVKKPGASVKVSCKASGYTFTSYNMHWVRQAPGQGLEWMGGIYPGNGDTSYNQKFQGRVTMTRDTSTSTVYMELSSLRSEDTAVYYCARGTVVGDWYFDVWGQGTLVTVSS VL: DIVMTQTPLSLSVSVGERVTITCKSSQSLENSNGNTYLNWYLQKPGQAPQLLIYRVSNRFSGVPDRFSGSGSGTDFTLTISRVEAEDVGVYYCLQLTHVPWTFGQGTKLEIK | – | binds
